Square brackets hold non-standard residues; d marks the D form. Ends that are not written are not given here. AEEA = NCCOCCOCC(=O)O
T1: αV-TM-coum (coumarin label (site not stated))
T1 peptide: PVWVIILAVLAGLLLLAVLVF

T2: fluorescein-5-isothiourea-tagged αIIb-TM (fluorescein-5-isothiourea (FITC) attached via an ε-aminohexanoic acid linker to the N-terminus)
T2 construct: also called FITC-αIIb-TM; αIIb-TM-FITC
T2 peptide: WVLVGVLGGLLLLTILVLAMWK


How the values were obtained:
[1] = target: integrin αVβ3 on human platelets (human, UniProt P06756 31-1048; P05106 27-788); assay: cell-based or functional assay
Sequence of integrin αVβ3 on human platelets (P06756 31-1048, chain 1 of 2): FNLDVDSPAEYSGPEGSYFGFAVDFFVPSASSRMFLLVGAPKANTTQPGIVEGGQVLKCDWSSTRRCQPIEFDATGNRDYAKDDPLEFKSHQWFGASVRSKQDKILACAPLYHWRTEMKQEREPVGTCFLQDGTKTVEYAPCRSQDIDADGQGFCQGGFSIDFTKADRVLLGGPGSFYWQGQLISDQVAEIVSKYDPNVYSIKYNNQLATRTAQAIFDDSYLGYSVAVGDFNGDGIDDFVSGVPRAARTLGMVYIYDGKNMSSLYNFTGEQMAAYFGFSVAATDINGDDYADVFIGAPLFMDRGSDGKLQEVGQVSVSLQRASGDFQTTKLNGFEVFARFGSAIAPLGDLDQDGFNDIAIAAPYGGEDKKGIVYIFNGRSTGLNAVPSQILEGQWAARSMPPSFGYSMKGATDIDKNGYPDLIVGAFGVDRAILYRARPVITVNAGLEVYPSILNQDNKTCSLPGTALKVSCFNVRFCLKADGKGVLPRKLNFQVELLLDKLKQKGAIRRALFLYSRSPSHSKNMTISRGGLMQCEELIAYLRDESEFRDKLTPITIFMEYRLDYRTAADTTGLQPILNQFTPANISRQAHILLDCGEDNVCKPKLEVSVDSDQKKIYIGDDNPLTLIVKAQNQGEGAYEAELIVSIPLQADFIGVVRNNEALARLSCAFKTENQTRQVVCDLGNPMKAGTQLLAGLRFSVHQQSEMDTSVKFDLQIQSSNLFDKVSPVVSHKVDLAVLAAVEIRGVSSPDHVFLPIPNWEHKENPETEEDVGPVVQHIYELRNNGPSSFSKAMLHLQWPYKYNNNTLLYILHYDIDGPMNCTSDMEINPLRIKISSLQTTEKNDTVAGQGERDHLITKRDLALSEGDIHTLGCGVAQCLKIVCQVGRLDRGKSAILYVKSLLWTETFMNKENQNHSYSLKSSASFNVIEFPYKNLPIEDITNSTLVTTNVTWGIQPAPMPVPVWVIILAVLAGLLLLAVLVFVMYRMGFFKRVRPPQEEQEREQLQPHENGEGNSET
Sequence of integrin αVβ3 on human platelets (P05106 27-788, chain 2 of 2): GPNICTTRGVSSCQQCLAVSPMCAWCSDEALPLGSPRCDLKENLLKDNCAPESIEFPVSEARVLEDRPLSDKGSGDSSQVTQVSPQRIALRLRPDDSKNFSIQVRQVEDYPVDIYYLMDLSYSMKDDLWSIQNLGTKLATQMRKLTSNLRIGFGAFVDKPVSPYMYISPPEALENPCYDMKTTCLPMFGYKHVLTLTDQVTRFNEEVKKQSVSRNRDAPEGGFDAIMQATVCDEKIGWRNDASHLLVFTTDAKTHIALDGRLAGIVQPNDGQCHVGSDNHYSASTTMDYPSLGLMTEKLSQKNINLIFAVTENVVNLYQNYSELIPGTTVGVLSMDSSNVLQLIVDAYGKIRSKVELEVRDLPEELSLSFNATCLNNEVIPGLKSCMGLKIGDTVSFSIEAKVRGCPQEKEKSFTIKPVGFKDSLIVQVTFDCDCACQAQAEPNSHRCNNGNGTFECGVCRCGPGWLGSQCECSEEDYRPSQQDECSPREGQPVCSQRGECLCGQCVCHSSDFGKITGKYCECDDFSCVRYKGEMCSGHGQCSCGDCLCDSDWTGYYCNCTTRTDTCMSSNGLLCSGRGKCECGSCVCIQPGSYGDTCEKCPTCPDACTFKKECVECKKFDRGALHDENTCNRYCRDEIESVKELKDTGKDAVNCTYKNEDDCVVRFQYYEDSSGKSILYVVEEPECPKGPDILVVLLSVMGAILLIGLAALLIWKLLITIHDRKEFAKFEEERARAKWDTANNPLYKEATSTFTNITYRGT

αV-TM-coum = target: T1, αV-TM-coum; assay: analytical ultracentrifugation, equilibrium sedimentation, heterodimer, 1:1 mixture in 5 mM C14-betaine micelles
Method: (§1) Equilibrium sedimentation was used primarily to determine the association state of the peptides, but also to provide a rough estimate of the heterodimeric association constants. […] Peptides were co-dissolved in CF₃CH₂OH (Sigma-Aldrich, St. Louis, Mo.) and C14-betaine (3-(N,N-dimethylmyristyl-ammonio)propanesulfonate; Sigma-Aldrich, St. Louis, Mo.). […] The final concentration of C-14 betaine is 5 mM in the samples. Samples were prepared in a total peptide concentration of 50 μM (in case of heterodimer formation, a 1:1 mixture was prepared) and incubated overnight. Data at three measurement speeds (40, 45, and 50 KRPM for αIIb peptides and 30, 35, and 40 KRPM for the αv peptides) were analyzed by global curve-fitting of radial concentration gradients (measured using optical absorption) (FIG. 8a-8f) to the sedimentation equilibrium equation for monomer-dimer equilibria among the peptides included in the solution. […] Aqueous solution molar extinction coefficients at 280 nm were calculated using the program Sednterp. […] These coefficients were multiplied by the molar detergent concentration to provide mole ratio concentration units.
(§2) Ultracentrifugation data (FIG. 8) were first collected for the individual peptides.

[2] = target: the molecule itself; assay: analytical ultracentrifugation, equilibrium sedimentation, homodimer, 5 mM C14-betaine micelles
Method: as §1, §2

[3] = target: T2, fluorescein-5-isothiourea-tagged αIIb-TM; assay: analytical ultracentrifugation, equilibrium sedimentation, heterodimer, 1:1 mixture in 5 mM C14-betaine micelles
Method: as §1, §2

Binder | Dimerization pKdiss [2] | other results
[AEEA]AYVFILLSFILGTLLGFLVMFWA (designed binder) [anti-αV polypeptide] | – | fold decrease in potency in inducing platelet adhesion to immobilized osteopontin [1]: ~10 fold; Dimerization pKdiss (αV-TM-coum): > 2 pKdiss (mole ratio units)
PVWVIILAVLAGLLLLAVLVF [αV-TM] | 0.7 pKdiss (mole ratio units) | –
WVLVGVLGGLLLLTILVLAMWK [αIIb-TM polypeptide] | 1.8 pKdiss (mole ratio units) | –
KKAYVMLLPFFIGLLLGLIFGGAFWGPARHLKK (designed binder, also: FITC-labeled, site not given here) [Anti-αIIb (FITC-labeled)] | 2.3 pKdiss (mole ratio units) | –
KKAYVMLLPFFIGLLLGLIFGGAFWGPARHLKK (designed binder, also called anti-am) [anti-αIIb polypeptide] | – | Dimerization pKdiss [3]: 2.6 pKdiss (mole ratio units)
AYVFILLSFILGTLLGFLVMFWA (designed binder, also: coumarin-labeled, site not given here) [Anti-αV(coumarin-labeled)] | 1.4 pKdiss (mole ratio units) | –

Source: US20100120695A1 (University of Pennsylvania, published 2010)
